B1: Hairpin Ribozyme (parent)
chain: GUCCUCUUUCACGUGCGCGUGAAAGAGAGAAGUGAACCAGAGAAACACACGUUGUGGUAUAUUACCUGGUA

Variants of: B1
Test: self-cleavage, relative activity (ratio to wild type); higher = more cleavage; co-transcriptional

Variant | self-cleavage
U14C U20C | 1.03
G13C G25C | 0.356
C37U A64C | 0.205
G21U A45C | 0.218
A61C C66A | 0.0988
C16U U52G | 0.761
U14C G42A | 0.154
G32A U55C | 0.161
U9C G21A | 0.5
U8A A43U | 0.106
G13A U70G | 0.629
G29A A35C | 0.187
U5A C37A | 0.0853
U2G C10U | 0.269
A28C U70A | 0.468
C38U A39U | 0.185
G40A U63C | 0.15
A45G U63A | 0.124
C46A C66U | 0.15
U20G G56A | 0.0796
U7A G56C | 0.176
A26U A41C | 0.776
C12A A26U | 0.522
C3A C48U | 0.112

Variant | self-cleavage
C3G C4U | 0.277
C3U C16G | 0.23
C18U G25C | 0.491
A31U G51A | 0
A11G U62G | 0.332
G13C G51A | 0.521
G56U G57A | 0.222
A43G U55A | 0.0267
C10A G56C | 0.11
U7A A36U | 0.568
C4A C6A | 0.166
C38U C48G | 0.123
C6A G25A | 0.546
G19U A47C | 0.418
G1C A35G | 0.121
U20C G42U | 0.172
A24G G40A | 0.338
C16U U60C | 1.26
A35G U58G | 0.881
C3A A43C | 0.0772
A35U A36U | 0.524
U7G U63G | 0.145
C48G U63G | 0.0813
A22U G32C | 0.123

Variant | self-cleavage
G17C C66U | 0.346
A47C A59C | 0.19
C18G G40C | 0.0865
C12G C48A | 0.128
U7A G34U | 1.4
C12U G21U | 0.672
U33A G54U | 0.186
U33A A71U | 0.137
U55A A64U | 0.302
A22U G25C | 0.143
U2G A64C | 0.165
A30G G42C | 0.169
C10A U53G | 0.514
U7C A61C | 0.11
G40A C46U | 0.147
C46G G57C | 0.0539
U5C G40A | 0.321
G27A G32C | 0.226
U20G A49C | 0.172
C12U A71C | 1.31
G13U A26U | 0.52
C46U G68C | 0.123
G19C U62G | 0.282
C18G A24G | 0.927

Variant | self-cleavage
A39U A59G | 0.101
C6A C37A | 0.236
U52G G54U | 0.417
A31U U60G | 0.115
A43G A59C | 0.153
C3G C48U | 0.0425
U8C C48A | 0.136
A22U G34U | 1.21
U14A G29U | 0.206
A11G U58G | 0.802
A43C C65U | 0.173
A24C G25A | 0.219
U2A A28G | 0.434
A22G A36U | 0.423
A39C A71U | 0.136
A11U U58C | 0.822
C3G A30G | 0.1
A22C A49G | 0.512
A22U U63G | 0.203
G13C U67A | 0.189
C37U C46A | 0.121
U7A A22G | 0.61
G42C U67C | 0.137
C3A A39G | 0.192

Variant | self-cleavage
A30C A36C | 0.164
A24C G51C | 0.77
A43C A49G | 0
U62A A71G | 0.211
U8G G69U | 0.29
G29C G32U | 0.121
U9G U58C | 0.794
G21C G42A | 0.216
G1A G57U | 0.179
A24G A71C | 1.4
A26C A59U | 0.245
C16A A64U | 0.14
A22G | 0.871
U8C U33G | 0.36
G17U G27A | 0.374
G17U G27C | 0.165
A36G A41U | 1.31
G27A A31G | 0.221
G17U G21A | 0.491
G69U A71U | 0.362
A45U A71C | 0.286
G13C G32A | 0.12
U7G A26U | 0.384
G1U A36G | 0.184

Variant | self-cleavage
A45C U67A | 0.118
G42A A59C | 0.195
C4U U5G | 0.343
A35C G68A | 0.279
A24G C50U | 0.371
U55A A61U | 0.214
C3G A61C | 0.168
U2C U7C | 0.246
G32U U55G | 0.132
C3U A71U | 0.429
U9G G15C | 0.893
C12U G51A | 1.01
C12U C66A | 0.179
A45G U53C | 0.4
G54A U55G | 0.162
G54A U55A | 0.39
A30G G51U | 0.157
G15C A49G | 0.523
C12U A49G | 0.564
U14A G40C | 0.187
A30U A64G | 0.106
A22C U55A | 0.217
A39C G57A | 0.215
U55G U60C | 0.408

Variant | self-cleavage
G19C C37A | 0.32
U14C A28C | 0.565
A44C G57C | 0.215
A22U U67C | 0.168
U8G C37G | 0.191
A26U U33A | 0.148
C3G A64U | 0.134
U5C G68C | 0.159
A36U U58C | 0.719
C12A U14A | 0.611
C10U U62C | 0.281
A11U U67C | 0.223
U2C G69C | 0.0747
A43U A45G | 0.119
A23G G57A | 0.19
C6G A30G | 0.14
G25C G56A | 0.149
A24G A44C | 0.0644
C16A A44C | 0.229
C18A G69U | 0.339
C12A A22U | 0.737
U20G A59U | 0.123
C3A U7C | 0.621
G40C A44G | 0.101

Variant | self-cleavage
G32U U58A | 0.0967
G34U G42U | 1.17
U14C C46U | 0.078
G17C U67G | 0.161
U2C C65U | 0.162
C12U G40C | 0.194
C38A A45C | 0.234
A22U A23C | 0.733
U5C G57A | 0.0835
U20G G69A | 0.421
G27A A64U | 0.174
A26U A64C | 0.15
C38G G42U | 0.172
C18G G25C | 0.454
A23G U67A | 0.105
A36G A45U | 0.219
C6U G69C | 0.178
A31G A47C | 0.2
G32A G68U | 0.0821
U7A C12A | 0.549
C3U G51U | 0.538
G42C U60A | 0.133
A26C C65A | 0.614
A64G C65A | 0.139

Variant | self-cleavage
G21A A41G | 0.765
A11U U70A | 0.914
C12A A36U | 0.435
A45C A61U | 0.186
G19U A43U | 0.134
G29U A61U | 0.0881
U33G A41G | 0.0864
A22G A43G | 0.121
C6G C10U | 0.305
A41C U55G | 0.285
G42A C48A | 0.0835
A26C C46G | 0.106
C10A A47U | 0.177
A30G C66G | 0.184
C37A A64G | 0.187
G19U G51C | 0.707
C3U | 0.526
A22G G34A | 0.987
G15U G29C | 0.125
A23U C50G | 0.239
A23C A71G | 0.936
G40C G56U | 0.152
U9A A28C | 0.266
U5G U20G | 0.238

Variant | self-cleavage
U14C A23G | 0.841
U55G A59G | 0.139
G15A A61U | 0.283
A22G G69U | 0.238
A41G U58G | 1.1
G21U C37G | 0.32
G57C U62A | 0.183
U9C G57C | 0.0619
C38U U62G | 0.124
U33C C38A | 0.087
G25C C50A | 0.214
A30U C50A | 0.221
G21U C46G | 0.0824
G54A G68A | 0.206
A22G A47U | 0.102
A39C A64U | 0.16
A26C A64U | 0.158
C16U A23U | 0.992
A43G A61G | 0.188
G57A G68U | 0.169
G1A G25C | 0.209
C10G A43G | 0.175
C10G G21A | 0.704
G54C G57A | 0.0995

Variant | self-cleavage
A59G U67A | 0.311
G32A U70G | 0.165
G32C A47C | 0.161
G1C U67C | 0.119
G15A A23U | 0.846
U14A U52G | 0.494
A26G A59U | 0.233
A64C A71U | 0.243
G42A A45C | 0.0962
G1U G56U | 0.0984
A26U A45G | 0.168
U52A G56C | 0.124
A39C G68A | 0.215
A30U A41C | 0.256
U14A C16G | 0.594
A44C U58C | 0.141
C16U G40C | 0.11
A30C C65G | 0.166
U7C C10A | 0.815
C16G A31G | 0.431
U7C G42A | 0.287
A35C U53A | 0.995
G17A A31G | 0.694
A22U C48U | 0.0855

Variant | self-cleavage
A45G C46G | 0.181
G19U A64U | 0.217
C38A G69C | 0.168
G57U A61C | 0.0714
A24G A39C | 0.384
C3A G13C | 0.51
G17A A22C | 0.866
A11G A30U | 0.118
C4A A31C | 0.131
U5G U9A | 0.346
A36U A39U | 0.171
U55C U70G | 0.203
G17C G54U | 0.417
G34C G40C | 0.188
A35U C38U | 0.216
A24U G25C | 0.385
G15C G27U | 0.214
G42A U63A | 0.174
G68U A71U | 0.234
G13C G19A | 0.753
A35G G57A | 0.222
A22U A47G | 0.115
U9A A47G | 0.0847
G15C G17C | 0.668

Variant | self-cleavage
U20A G32C | 0.174
G42C A64C | 0.252
C16G U62A | 0.168
G1C C46A | 0.208
G1C C46U | 0.0993
A43G C46U | 0.0992
C4U A44U | 0.162
G17C A44G | 0.121
U33G A49C | 0.114
A22C G69C | 0.366
U14G G27C | 0.0943
A47G | 0.162
A31U U67C | 0.0741
A11G C50G | 0.346
U58C A59C | 0.304
A24C C50A | 0.103
A44G G57C | 0.148
U2A U20C | 0.336
G13A G32U | 0.205
C38A A59G | 0.118
A11G G69A | 0.405
U52C U62G | 0.0331
C3U U55G | 0.208
C46A U52G | 0.119

Variant | self-cleavage
A59U A61U | 0.168
G54C U63A | 0.103
G34A A39G | 0.768
G21C A61G | 0.104
G17U C38G | 0.158
G17U A45C | 0.156
A39G | 0.299
A23U G54C | 0.551
C48G U58G | 0.0532
U20A A43C | 0.0739
A30U A31G | 0.143
G15C G40A | 0.315
A11C G13A | 0.661
G21A G25C | 0.358
U8A G34U | 1.05
A35C A41U | 1.35
C6G G17A | 0.491
G32A C66G | 0.144
C38A C66U | 0.0169
C4U A61U | 0.0691
U8G G32C | 0.12
A26U C38U | 0.409

Reference: the RNAGym collection of RNA variant scans (doi:10.7554/elife.80360)
